Molecular target: extra-cellular domain of recombinantly expressed RSV F protein (human Respiratory Syncytial Virus)
Test: Biacore (SPR)

Chain of extra-cellular domain of recombinantly expressed RSV F protein (human Respiratory Syncytial Virus) (P03420 26-524): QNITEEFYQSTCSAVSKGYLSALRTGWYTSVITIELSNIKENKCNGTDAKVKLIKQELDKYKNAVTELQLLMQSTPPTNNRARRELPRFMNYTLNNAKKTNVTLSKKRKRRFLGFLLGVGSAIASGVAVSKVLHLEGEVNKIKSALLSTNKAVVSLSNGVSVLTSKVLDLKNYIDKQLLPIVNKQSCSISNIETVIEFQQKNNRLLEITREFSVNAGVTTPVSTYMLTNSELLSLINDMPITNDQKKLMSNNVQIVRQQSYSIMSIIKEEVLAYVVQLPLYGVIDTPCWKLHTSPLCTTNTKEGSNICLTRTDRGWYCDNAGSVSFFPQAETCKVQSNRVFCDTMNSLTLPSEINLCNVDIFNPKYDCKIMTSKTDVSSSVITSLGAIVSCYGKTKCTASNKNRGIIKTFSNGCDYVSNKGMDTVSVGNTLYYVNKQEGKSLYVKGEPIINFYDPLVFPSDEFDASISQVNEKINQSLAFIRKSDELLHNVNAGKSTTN

Row | Substance | Kd
1 | Numax™ (antibody) | 0.24 nM
2 | SYNAGIS® brand of pavilizumab (antibody) | 0.4 nM
